# Reference: patent publication US20200197498A1 (OHIO STATE INNOVATION FOUNDATION, published 2020)
# B1: PD-1 (45-64) (peptide)
# peptide: H-KLAAFPEDRSQPGQDCRFR-NH2
# notes: Free peptide (H2N- at the N-terminus); also called free peptide; 46-64
# B2: PD-1 (73-90) (peptide)
# peptide: H-DFHMSVVRARRNDSGTYL-NH2
# notes: Free peptide (H2N- at the N-terminus); also called free peptide
# B3: PD-1 (92-110) (peptide)
# peptide: H-GAISLAPKAQIKESLRAEL-NH2
# notes: as for B2
# B4: AC-PD-1 (45-64) (peptide)
# peptide: Ac-KLAAFPEDRSQPGQDCRFR-NH2
# notes: also called acetylated peptide
# B5: AC-PD-1 (73-90) (peptide)
# peptide: Ac-DFHMSVVRARRNDSGTYL-NH2
# notes: as for B4
# B6: AC-PD-1 (92-110) (peptide)
# peptide: Ac-GAISLAPKAQIKESLRAEL-NH2
# notes: as for B4
# B7: MVF-HER-2(266-296) (peptide)
# peptide: KLLSLIKGVIVHRLEGVEGPSLLHCPALVTYNTDTFESMPNPEGRYTFGASCV
# notes: Negative control peptide in SPR
# Molecular target: T1, recombinant hPD-L1 ectodomain (human, UniProt Q9NZQ7 19-238)
# T1 construct: extracellular domain; Immobilised on a CM5 chip by amine coupling (2345 RU); also called rhPD-L1; rPD-L1
# T1 sequence (Q9NZQ7 19-238): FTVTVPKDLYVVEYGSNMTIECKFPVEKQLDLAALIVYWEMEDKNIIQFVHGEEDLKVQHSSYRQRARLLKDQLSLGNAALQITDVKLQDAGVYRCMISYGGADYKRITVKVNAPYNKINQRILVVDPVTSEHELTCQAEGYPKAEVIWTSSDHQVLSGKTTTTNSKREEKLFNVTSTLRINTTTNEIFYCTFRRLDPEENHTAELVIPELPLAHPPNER
# Test: SPR (Biacore T200), rhPD-L1 immobilised on CM5 chip, 1 µM peptide injected
Binder,binding result,SPR response
B1,binds,
B2,binds,
B3,binds,
B4,binds,
B5,binds,
B6,binds,
B7,,20 RU
